Assay results published in US20230250154A1 (CYTONICS, published 2023).
Positions count from the first letter of the chain named. Names and notes keep the numbering of the source.

T1: MMP2 (human, UniProt P08253 110-660, limits assumed)
T1 sequence (looked up): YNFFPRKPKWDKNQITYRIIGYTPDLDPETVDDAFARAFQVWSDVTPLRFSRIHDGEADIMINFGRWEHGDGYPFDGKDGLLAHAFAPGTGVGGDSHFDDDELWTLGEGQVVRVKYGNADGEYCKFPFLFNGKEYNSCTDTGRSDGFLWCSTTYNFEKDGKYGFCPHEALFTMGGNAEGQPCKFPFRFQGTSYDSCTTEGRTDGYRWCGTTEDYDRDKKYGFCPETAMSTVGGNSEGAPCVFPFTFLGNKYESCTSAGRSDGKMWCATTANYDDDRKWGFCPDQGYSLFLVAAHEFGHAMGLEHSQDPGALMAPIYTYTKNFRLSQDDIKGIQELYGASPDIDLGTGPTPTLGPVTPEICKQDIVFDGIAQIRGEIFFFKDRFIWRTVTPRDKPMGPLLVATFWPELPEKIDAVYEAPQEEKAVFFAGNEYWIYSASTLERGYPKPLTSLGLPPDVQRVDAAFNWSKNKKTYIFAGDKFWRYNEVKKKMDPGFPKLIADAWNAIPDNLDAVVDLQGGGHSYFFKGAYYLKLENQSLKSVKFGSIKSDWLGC

T2: MMP1 (human, UniProt P03956 100-469, limits assumed)
T2 sequence (looked up): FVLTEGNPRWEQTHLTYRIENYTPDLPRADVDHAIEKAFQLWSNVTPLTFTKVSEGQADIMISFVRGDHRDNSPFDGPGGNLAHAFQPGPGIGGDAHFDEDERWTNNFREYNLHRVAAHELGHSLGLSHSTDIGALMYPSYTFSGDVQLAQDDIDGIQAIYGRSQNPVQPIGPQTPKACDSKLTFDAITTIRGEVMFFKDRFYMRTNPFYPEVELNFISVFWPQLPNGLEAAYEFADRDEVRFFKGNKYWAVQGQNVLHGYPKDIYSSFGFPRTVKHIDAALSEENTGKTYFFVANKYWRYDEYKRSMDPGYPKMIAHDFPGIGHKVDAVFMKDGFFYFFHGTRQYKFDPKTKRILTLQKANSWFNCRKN

T3: ADAMTS5 (human, UniProt Q9UNA0 262-622, limits assumed)
T3 sequence (looked up): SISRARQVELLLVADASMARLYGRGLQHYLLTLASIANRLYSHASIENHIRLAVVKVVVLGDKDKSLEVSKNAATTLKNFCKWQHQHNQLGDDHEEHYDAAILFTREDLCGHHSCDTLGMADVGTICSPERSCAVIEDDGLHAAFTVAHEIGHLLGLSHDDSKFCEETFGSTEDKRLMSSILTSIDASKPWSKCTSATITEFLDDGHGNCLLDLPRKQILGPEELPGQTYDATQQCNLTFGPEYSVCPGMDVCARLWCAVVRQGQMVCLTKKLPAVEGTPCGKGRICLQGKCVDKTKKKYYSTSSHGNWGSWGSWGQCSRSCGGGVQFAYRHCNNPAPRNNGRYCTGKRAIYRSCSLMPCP

T4: ADAMTS4 (human, UniProt O75173 213-685, limits assumed)
T4 sequence (looked up): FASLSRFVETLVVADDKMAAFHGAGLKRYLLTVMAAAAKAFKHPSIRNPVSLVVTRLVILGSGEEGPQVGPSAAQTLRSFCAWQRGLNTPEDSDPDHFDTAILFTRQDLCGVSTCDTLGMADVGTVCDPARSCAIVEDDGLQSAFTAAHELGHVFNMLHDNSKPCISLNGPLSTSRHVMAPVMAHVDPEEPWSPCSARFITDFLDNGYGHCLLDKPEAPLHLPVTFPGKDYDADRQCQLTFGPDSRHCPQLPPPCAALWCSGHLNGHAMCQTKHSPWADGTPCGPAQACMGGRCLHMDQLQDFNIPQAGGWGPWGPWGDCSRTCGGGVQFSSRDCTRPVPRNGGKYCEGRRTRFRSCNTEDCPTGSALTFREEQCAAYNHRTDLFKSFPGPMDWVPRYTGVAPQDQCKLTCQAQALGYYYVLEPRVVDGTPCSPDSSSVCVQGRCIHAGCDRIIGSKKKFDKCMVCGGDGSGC

T5: MMP7 (UniProt P09237 95-267, limits assumed)
T5 sequence (looked up): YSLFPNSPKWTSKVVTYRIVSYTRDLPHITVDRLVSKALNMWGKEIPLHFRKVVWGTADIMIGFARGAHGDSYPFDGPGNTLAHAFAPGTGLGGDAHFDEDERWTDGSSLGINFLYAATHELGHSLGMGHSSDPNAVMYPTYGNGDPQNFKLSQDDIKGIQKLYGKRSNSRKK

T6: Cathepsin G (UniProt P08311 21-244)
T6 sequence (looked up): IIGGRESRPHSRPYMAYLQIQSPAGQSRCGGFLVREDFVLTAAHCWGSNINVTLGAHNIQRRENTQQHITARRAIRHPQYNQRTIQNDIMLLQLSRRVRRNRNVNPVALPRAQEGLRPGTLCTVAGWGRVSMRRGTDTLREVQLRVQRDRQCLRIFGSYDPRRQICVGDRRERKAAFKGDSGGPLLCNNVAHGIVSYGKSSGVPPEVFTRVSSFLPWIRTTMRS

B1: Variant A2M, bait region SEQ ID NO 7 (other)
chain: SVSGKPQYMVLVPSLLHTETTEKGCVLLSYLNETVTVSASLESVRGNRSLFTDLEAENDVLHCVAFAVPKSSSNEEVMFLTVQVKGPTQEFKKRTTVMVKNEDSLVFVQTDKSIYKPGQTVKFRVVSMDENFHPLNELIPLVYIQDPKGNRIAQWQSFQLEGGLKQFSFPLSSEPFQGSYKVVVQKKSGGRTEHPFTVEEFVLPKFEVQVTVPKIITILEEEMNVSVCGLYTYGKPVPGHVTVSICRKYSDASDCHGEDSQAFCEKFSGQLNSHGCFYQQVKTKVFQLKRKEYEMKLHTEAQIQEEGTVVELTGRQSSEITRTITKLSFVKVDSHFRQGIPFFGQVRLVDGKGVPIPNKVIFIRGNEANYYSNATTDEHGLVQFSINTTNVMGTSLTVRVNYKDRSPCYGYQWVSEEHEEAHHTAYLVFSPSKSFVHLEPMSHELPCGHTQTVQAHYILNGGTLLGLKKLSFYYLIMAKGGIVRTGTHGLLVKQEDMKGHFSISIPVKSDIAPVARLLIYAVLPTGDVIGDSAKYDVENCLANKVDLSFSPSQSLPASHAHLRVTAAPQSVCALRAVDQSVLLMKPDAELSASSVYNLLPEKDLTGFPGPLNDQDDEDCINRHNVYINGITYTPVSSTNEKDMYSFLEDMGLKAFTNSKIRKPKMCPQLEHGPEGEGEGEGIPENFFGVRYSEDLVVQISELEGRGSVEEPHTKLRKYFPETWIWDLVVVNSAGVAEVGVTVPDTITEWKAGAFCLSEDAGLGISSTASLRAFQPFFVELTMPYSVIRGEAFTLKATVLNYLPKCIRVSVQLEASPAFLAVPVEKEQAPHCICANGRQTVSWAVTPKSLGNVNFTVSAEALESQELCGTEVPSVPEHGRKDTVIKPLLVEPEGLEKETTFNSLLCPSGGEVSEELSLKLPPNVVEESARASVSVLGDILGSAMQNTQNLLQMPYGCGEQNMVLFAPNIYVLDYLNETQQLTPEIKSKAIGYLNTGYQRQLNYKHYDGSYSTFGERYGRNQGNTWLTAFVLKTFAQARAYIFIDEAHITQALIWLSQRQKDNGCFRSSGSLLNNAIKGGVEDEVTLSAYITIALLEIPLTVTHPVVRNALFCLESAWKTAQEGDHGSHVYTKALLAYAFALAGNQDKRKEVLKSLNEEAVKKDNSVHWERPQKPKAPVGHFYEPQAPSAEVEMTSYVLLAYLTAQPAPTSEDLTSATNIVKWITKQQNAQGGFSSTQDTVVALHALSKYGAATFTRTGKAAQVTIQSSGTFSSKFQVDNNNRLLLQQVSLPELPGEYSMKVTGEGCVYLQTSLKYNILPEKEEFPFALGVQTLPQTCDEPKAHTSFQISLSVSYTGSRSASNMAIVDVKMVSGFIPLKPTVKMLERSNHVSRTEVSSNHVLIYLDKVSNQTLSLFFTVLQDVPVRDLKPAIVKVYDYYETDEFAIAEYNAPCSKDLGNADYKDDDDKGASHHHHHH
B2: Variant A2M, bait region SEQ ID NO 8 (other)
chain: B1 chain with R690L
B3: Variant A2M, bait region SEQ ID NO 20 (other)
chain: SVSGKPQYMVLVPSLLHTETTEKGCVLLSYLNETVTVSASLESVRGNRSLFTDLEAENDVLHCVAFAVPKSSSNEEVMFLTVQVKGPTQEFKKRTTVMVKNEDSLVFVQTDKSIYKPGQTVKFRVVSMDENFHPLNELIPLVYIQDPKGNRIAQWQSFQLEGGLKQFSFPLSSEPFQGSYKVVVQKKSGGRTEHPFTVEEFVLPKFEVQVTVPKIITILEEEMNVSVCGLYTYGKPVPGHVTVSICRKYSDASDCHGEDSQAFCEKFSGQLNSHGCFYQQVKTKVFQLKRKEYEMKLHTEAQIQEEGTVVELTGRQSSEITRTITKLSFVKVDSHFRQGIPFFGQVRLVDGKGVPIPNKVIFIRGNEANYYSNATTDEHGLVQFSINTTNVMGTSLTVRVNYKDRSPCYGYQWVSEEHEEAHHTAYLVFSPSKSFVHLEPMSHELPCGHTQTVQAHYILNGGTLLGLKKLSFYYLIMAKGGIVRTGTHGLLVKQEDMKGHFSISIPVKSDIAPVARLLIYAVLPTGDVIGDSAKYDVENCLANKVDLSFSPSQSLPASHAHLRVTAAPQSVCALRAVDQSVLLMKPDAELSASSVYNLLPEKDLTGFPGPLNDQDDEDCINRHNVYINGITYTPVSSTNEKDMYSFLEDMGLKAFTNSKIRKPKMCPQLEHGPEFRGVTEGEGEGIPENFYGVSEDLVVQISELEGRGSVEEPHTKLRKYFPETWIWDLVVVNSAGVAEVGVTVPDTITEWKAGAFCLSEDAGLGISSTASLRAFQPFFVELTMPYSVIRGEAFTLKATVLNYLPKCIRVSVQLEASPAFLAVPVEKEQAPHCICANGRQTVSWAVTPKSLGNVNFTVSAEALESQELCGTEVPSVPEHGRKDTVIKPLLVEPEGLEKETTFNSLLCPSGGEVSEELSLKLPPNVVEESARASVSVLGDILGSAMQNTQNLLQMPYGCGEQNMVLFAPNIYVLDYLNETQQLTPEIKSKAIGYLNTGYQRQLNYKHYDGSYSTFGERYGRNQGNTWLTAFVLKTFAQARAYIFIDEAHITQALIWLSQRQKDNGCFRSSGSLLNNAIKGGVEDEVTLSAYITIALLEIPLTVTHPVVRNALFCLESAWKTAQEGDHGSHVYTKALLAYAFALAGNQDKRKEVLKSLNEEAVKKDNSVHWERPQKPKAPVGHFYEPQAPSAEVEMTSYVLLAYLTAQPAPTSEDLTSATNIVKWITKQQNAQGGFSSTQDTVVALHALSKYGAATFTRTGKAAQVTIQSSGTFSSKFQVDNNNRLLLQQVSLPELPGEYSMKVTGEGCVYLQTSLKYNILPEKEEFPFALGVQTLPQTCDEPKAHTSFQISLSVSYTGSRSASNMAIVDVKMVSGFIPLKPTVKMLERSNHVSRTEVSSNHVLIYLDKVSNQTLSLFFTVLQDVPVRDLKPAIVKVYDYYETDEFAIAEYNAPCSKDLGNADYKDDDDKGASHHHHHH

target: MMP3 (human, UniProt P08254 100-477, limits assumed); assay: cell-based or functional assay
Sequence (P08254 100-477 limits assumed): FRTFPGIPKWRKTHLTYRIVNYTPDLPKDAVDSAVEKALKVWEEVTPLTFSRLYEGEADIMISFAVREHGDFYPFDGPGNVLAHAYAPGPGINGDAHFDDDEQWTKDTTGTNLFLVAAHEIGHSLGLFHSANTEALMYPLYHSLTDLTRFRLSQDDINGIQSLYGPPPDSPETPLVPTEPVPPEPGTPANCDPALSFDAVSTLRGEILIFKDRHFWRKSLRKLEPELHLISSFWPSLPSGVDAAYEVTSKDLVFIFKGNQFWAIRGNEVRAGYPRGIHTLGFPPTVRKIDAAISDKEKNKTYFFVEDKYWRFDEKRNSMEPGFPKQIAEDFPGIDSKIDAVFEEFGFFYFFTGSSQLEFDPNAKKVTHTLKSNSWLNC

Row | Binder | Protease Inhibition (% of WT)
1 | B1 | 127 % of WT
2 | B2 | < 100 % of WT
3 | B3 | 122 % of WT

target: T1, MMP2; assay: cell-based or functional assay

Row | Binder | Protease Inhibition (% of WT)
4 | B1 | 58 % of WT
5 | B2 | 33 % of WT
6 | B3 | 37 % of WT

target: MMP13 (human, UniProt P45452 104-471, limits assumed); assay: cell-based or functional assay

Row | Binder | Protease Inhibition (% of WT)
7 | B1 | 145 % of WT
8 | B2 | 56 % of WT
9 | B3 | 100 % of WT

target: T2, MMP1; assay: cell-based or functional assay

Row | Binder | Protease Inhibition (% of WT)
10 | B1 | 117 % of WT
11 | B2 | 48 % of WT
12 | B3 | 119 % of WT

target: MMP8 (human, UniProt P22894 101-467, limits assumed); assay: cell-based or functional assay
Sequence (P22894 101-467 limits assumed): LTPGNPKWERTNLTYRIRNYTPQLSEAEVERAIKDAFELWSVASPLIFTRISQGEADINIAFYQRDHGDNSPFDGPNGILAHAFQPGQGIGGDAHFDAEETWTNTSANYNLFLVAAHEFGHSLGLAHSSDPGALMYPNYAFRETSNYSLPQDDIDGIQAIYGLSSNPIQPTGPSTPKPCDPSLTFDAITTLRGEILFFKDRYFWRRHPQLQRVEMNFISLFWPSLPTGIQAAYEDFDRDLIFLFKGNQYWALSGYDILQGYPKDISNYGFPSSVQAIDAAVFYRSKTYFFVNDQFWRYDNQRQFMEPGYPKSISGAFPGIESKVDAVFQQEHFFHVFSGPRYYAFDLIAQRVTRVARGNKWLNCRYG

Row | Binder | Protease Inhibition (% of WT)
13 | B1 | 81 % of WT
14 | B2 | 28 % of WT
15 | B3 | 64 % of WT

target: T3, ADAMTS5; assay: cell-based or functional assay

Row | Binder | Protease Inhibition (% of WT)
16 | B1 | 79 % of WT
17 | B2 | 97 % of WT
18 | B3 | 246 % of WT

target: T4, ADAMTS4; assay: cell-based or functional assay

Row | Binder | Protease Inhibition (% of WT)
19 | B1 | 222 % of WT
20 | B2 | 120 % of WT
21 | B3 | 201 % of WT

target: Elastase; assay: cell-based or functional assay

Row | Binder | Protease Inhibition (% of WT)
22 | B1 | 131 % of WT
23 | B2 | 39 % of WT
24 | B3 | 124 % of WT

target: T5, MMP7; assay: cell-based or functional assay

Row | Binder | Protease Inhibition (% of WT)
25 | B1 | 147 % of WT
26 | B2 | 64 % of WT
27 | B3 | 170 % of WT

target: T6, Cathepsin G; assay: cell-based or functional assay

Row | Binder | Protease Inhibition (% of WT)
28 | B1 | 157 % of WT
29 | B2 | 12 % of WT
30 | B3 | 117 % of WT

target: MMP9 (human, UniProt P14780 107-707, limits assumed); assay: cell-based or functional assay
Sequence (P14780 107-707 limits assumed): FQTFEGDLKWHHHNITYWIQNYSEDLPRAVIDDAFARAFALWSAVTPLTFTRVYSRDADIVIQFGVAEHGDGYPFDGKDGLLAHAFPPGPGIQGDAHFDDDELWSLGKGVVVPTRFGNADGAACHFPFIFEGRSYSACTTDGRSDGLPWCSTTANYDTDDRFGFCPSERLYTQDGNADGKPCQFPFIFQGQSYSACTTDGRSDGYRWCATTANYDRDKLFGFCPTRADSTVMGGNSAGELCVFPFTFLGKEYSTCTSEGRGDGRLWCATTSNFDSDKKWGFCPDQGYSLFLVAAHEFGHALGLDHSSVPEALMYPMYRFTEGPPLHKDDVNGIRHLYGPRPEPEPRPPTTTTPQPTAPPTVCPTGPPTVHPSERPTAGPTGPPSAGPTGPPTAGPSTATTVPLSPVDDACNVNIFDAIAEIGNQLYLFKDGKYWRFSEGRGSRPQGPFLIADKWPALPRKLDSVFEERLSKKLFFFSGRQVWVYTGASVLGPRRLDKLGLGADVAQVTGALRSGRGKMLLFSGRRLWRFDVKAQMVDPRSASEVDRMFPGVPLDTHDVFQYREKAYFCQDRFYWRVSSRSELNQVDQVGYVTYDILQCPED

Row | Binder | Protease Inhibition (% of WT)
31 | B1 | 39 % of WT
32 | B2 | 9 % of WT
33 | B3 | 41 % of WT
